{
  "source": "patent US20120171118A1",
  "about": "“TREATMENT OF MENINGEAL AND NEURAL DISEASES” (THE GENERAL HOSPITAL CORPORATION, priority 2009, published 2012)",
  "key": {"[1]": {"details": "systemically administered; cited from earlier work"}, "[2]": {"details": "neoplastic carcinoma patients; cited from earlier work"}, "[3]": {"type": "physicochemical", "excerpt": "Based on the experimental data on CPT release from PHF-CPT, the action of the conjugate after intrathecal administration will be localized in the target compartment (leptomeningeal tissues contacting with CSF). The kinetics of CPT release includes two phases: (1) non-enzymatic release of a highly hydrophobic prodrug camptothecin succinimidoglycinate (CPT-SI), and (2) release of active CPT from CPT-SI (Scheme 6). […] Thus, it is expected that CPT-SI will be deposited in the leptomeningeal space and will redistribute only locally along cell membranes and other hydrophobic compartments. […] A similar distribution pattern in the meningeal compartment is expected, with CPT-SI penetration from CSF into the cancer cell formations through several cell layers."}, "[4]": {"type": "in vitro ADME", "details": "rat, plasma", "experimental": "The mechanism of the second stage hydrolysis in vivo, which results in the active CPT release, may include spontaneous or enzymatic hydrolysis as well as, e.g., aminolysis. In vitro, the half-life of (N-succinamido)-glycyl linkage in the CPT prodrug (VI) in rat plasma was over 20 hours."}, "[5]": {"details": "humans, cited from earlier work"}, "[6]": {"experiment": "PET imaging of 124I-labeled human recombinant enzymes after IV and IT administration", "type": "in vivo, rats", "experimental": "Imaging was performed using MicroPET P4. Spatial resolution (full width at half maximum, FWHM) was studied using a line ^124I source (Ø=0.19 mm) in water. A 51×127 mm cylindrical phantom was used to evaluate the count-rate performance and coincidence detection. Studies in rats and cynomolgus monkeys were carried out using five human recombinant enzymes. The proteins were labeled with ^124I, at up to 5 mCi/mg.\nNext, three human recombinant enzymes, idursulfase, arylsulfatase A, and sulfamidase were labeled with ^124I and administered at 1 and 10 mg/kg via two routes, IV and IT. Dynamic imaging data and multiple static images were acquired over 8 days, and processed to determine the principal PK parameters. FITC labeled sulfamidase was also utilized to investigate brain cryosections by photoimaging."}},
  "data": [
    {"molecule": "CN(Cc1cnc2nc(N)nc(N)c2n1)c1ccc(C(=O)N[C@@H](CCC(=O)O)C(=O)O)cc1", "note": "[methotrexate]", "values": [
      {"measurement": "CSF level relative to the systemic level", "setting": "[1]", "value": 1.7, "unit": "%"}
    ]},
    {"molecule": "CC[C@@]1(O)C(=O)OCc2c1cc1n(c2=O)Cc2cc3c(CN(C)C)c(O)ccc3nc2-1", "note": "[topotecan]", "values": [
      {"measurement": "clinical outcome", "setting": "[2]", "value": "not promising"}
    ]},
    {"molecule": "camptothecin succinimidoglycinate [CPT-SI]", "values": [
      {"measurement": "solubility in water", "setting": "[3]", "value": "practically insoluble in water"},
      {"measurement": "half-life of (N-succinamido)-glycyl linkage", "setting": "[4]", "value": "over 20 hours"}
    ]},
    {"molecule": "indium complex of diethylenetriaminepentaacetic acid [In-DTPA]", "values": [
      {"measurement": "time to reach brain ventricles", "setting": "[5]; after intralumbar injection", "value": "ca. 5 hours"},
      {"measurement": "half-life in CSF", "setting": "[5]", "value": "13.5 ± 4.5", "unit": "h"}
    ]},
    {"molecule": "sulfamidase: human recombinant enzyme labeled with 124I (protein, UniProt P51688 21-502, looked up, 124I label, human recombinant enzyme labeled with 124I) N-sulphoglucosamine …: RPRNALLLLADDGGFESGAYNNSAIATPHLDALARRSLLFRNAFTSVSSCSPSRASLLTGLPQHQNGMYGLHQDVHHFNSFDKVRSLPLLLSQAGVRTGIIGKKHVGPETVYPFDFAYTEENGSVLQVGRNITRIKLLVRKFLQTQDDRPFFLYVAFHDPHRCGHSQPQYGTFCEKFGNGESGMGRIPDWTPQAYDPLDVLVPYFVPNTPAARADLAAQYTTVGRMDQGVGLVLQELRDAGVLNDTLVIFTSDNGIPFPSGRTNLYWPGTAEPLLVSSPEHPKRWGQVSEAYVSLLDLTPTILDWFSIPYPSYAIFGSKTIHLTGRSLLPALEAEPLWATVFGSQSHHEVTMSYPMRSVQHRHFRLVHNLNFKMPFPIDQDFYVSPTFQDLLNRTTAGQPTGWYKDLRHYYYRARWELYDRSRDPHETQNLATDPRFAQLLEMLRDQLAKWQWETHDPWVCAPDGVLEEKLSPQCQPLHNEL", "values": [
      {"measurement": "initial label content in the brain region", "setting": "[6]; after IT administration, 124I label, PET", "value": "35 % of the injected dose/g"},
      {"measurement": "initial label content in the brain region", "setting": "[6]; after IV administration, 124I label, PET", "value": "0.05 % of the injected dose/g"}
    ]},
    {"molecule": "idursulfase: human recombinant enzyme labeled with 124I (protein, UniProt P22304 34-455; P22304 456-550, looked up, 124I label, human recombinant enzyme labeled with 124I) Iduronate 2-sulfatase 42 kDa …: TDALNVLLIIVDDLRPSLGCYGDKLVRSPNIDQLASHSLLFQNAFAQQAVCAPSRVSFLTGRRPDTTRLYDFNSYWRVHAGNFSTIPQYFKENGYVTMSVGKVFHPGISSNHTDDSPYSWSFPPYHPSSEKYENTKTCRGPDGELHANLLCPVDVLDVPEGTLPDKQSTEQAIQLLEKMKTSASPFFLAVGYHKPHIPFRYPKEFQKLYPLENITLAPDPEVPDGLPPVAYNPWMDIRQREDVQALNISVPYGPIPVDFQRKIRQSYFASVSYLDTQVGRLLSALDDLQLANSTIIAFTSDHGWALGEHGEWAKYSNFDVATHVPLIFYVPGRTASLPEAGEKLFPYLDPFDSASQLMEPGRQSMDLVELVSLFPTLAGLAGLQVPPRCPVPSFHVELCREGKNLLKHFRFRDLEEDPYLPG Iduronate 2-sulfatase 14 kDa …: NPRELIAYSQYPRPSDIPQWNSDKPSLKDIKIMGYSIRTIDYRYTVWVGFNPDEFLANFSDIHAGELYFVDSDPLQDHNMYNDSQGGDLFQLLMP", "values": [
      {"measurement": "half-life of clearance from both the brain and spinal cord", "setting": "[6]; rat, in vivo", "value": "ca. 7 h"},
      {"measurement": "initial label content in the brain region", "setting": "[6]; rat, in vivo", "value": "45 % of the injected dose/g"},
      {"measurement": "initial label content in the brain region", "setting": "[6]; rat, in vivo, iv", "value": "0.20 % of the injected dose/g"}
    ]},
    {"molecule": "arylsulfatase A: human recombinant enzyme labeled with 124I (protein, UniProt P15289 19-507, looked up, 124I label, human recombinant enzyme labeled with 124I) Arylsulfatase A: RPPNIVLIFADDLGYGDLGCYGHPSSTTPNLDQLAAGGLRFTDFYVPVSLCTPSRAALLTGRLPVRMGMYPGVLVPSSRGGLPLEEVTVAEVLAARGYLTGMAGKWHLGVGPEGAFLPPHQGFHRFLGIPYSHDQGPCQNLTCFPPATPCDGGCDQGLVPIPLLANLSVEAQPPWLPGLEARYMAFAHDLMADAQRQDRPFFLYYASHHTHYPQFSGQSFAERSGRGPFGDSLMELDAAVGTLMTAIGDLGLLEETLVIFTADNGPETMRMSRGGCSGLLRCGKGTTYEGGVREPALAFWPGHIAPGVTHELASSLDLLPTLAALAGAPLPNVTLDGFDLSPLLLGTGKSPRQSLFFYPSYPDEVRGVFAVRTGKYKAHFFTQGSAHSDTTADPACHASSSLTAHEPPLLYDLSKDPGENYNLLGGVAGATPEVLQALKQLQLLKAQLDAAVTFGPSQVARGEDPALQICCHPGCTPRPACCHCPDPHA", "values": [
      {"measurement": "initial label content in the brain region", "setting": "[6]; rat, in vivo", "value": "70 % of the injected dose/g"},
      {"measurement": "initial label content in the brain region", "setting": "[6]; rat, in vivo, iv", "value": "0.15 % of the injected dose/g"}
    ]}
  ]
}
